Experimental data: US20040018971A1 (published 2004)

How the values were obtained:
[1] = biological target: HLA-A*1101 (human); assay: inhibition of 125I-labelled probe peptide binding to purified HLA-A*1101, gel filtration
[2] = biological target: T1, HLA-DR3 (DRB1*0301) (human); assay: competition binding assay, purified HLA, 125I-labelled probe peptide, gel filtration
T1 construct: purified HLA class II molecule

[3] = biological target: HLA-B*5101 (human); assay: competition with 125I probe peptide, purified HLA
[4] = biological target: HLA-B*0702 (human); assay: competition with 125I probe peptide, purified HLA
[5] = biological target: HLA-B*5101 (human); assay: competition vs 125I-labeled standard peptide, purified HLA
[6] = biological target: HLA-B*5301 (human); assay: as above
[7] = biological target: HLA-B*0702 (human); assay: as above
[8] = biological target: HLA-B*5401 (human); assay: as above
[9] = biological target: HLA-A*0301 (human); assay: inhibition of 125I-labelled standard peptide binding to purified HLA, gel filtration
[10] = biological target: HLA-A*1101 (human); assay: as above

Row | Binder | relative binding ratio (IC50 of standard peptide / IC50 of test peptide) [1] | relative binding ratio [2] | also measured
1 | ELHCPALVTY [HER2/neu peptide, position 265, 10 amino acids] | 0.0002 relative binding ratio | – | –
2 | ELMTFGAKPY [HER2/neu peptide, position 914, 10 amino acids] | 0.0002 relative binding ratio | – | –
3 | ESMPNPEGR [HER2/neu peptide, position 280, 9 amino acids] | -0.0002 relative binding ratio | – | –
4 | ETEYHADGGK [HER2/neu peptide, position 874, 10 amino acids] | 0.0001 relative binding ratio | – | –
5 | ETLEEITGY [HER2/neu peptide, position 401, 9 amino acids] | 0.0002 relative binding ratio | – | –
6 | EVTAEDGTQR [HER2/neu peptide, position 321, 10 amino acids] | 0.0001 relative binding ratio | – | –
7 | FSPAFDNLY [HER2/neu peptide, position 1213, 9 amino acids] | 0.0002 relative binding ratio | – | –
8 | FSRMARDPQR [HER2/neu peptide, position 976, 10 amino acids] | 0.001 relative binding ratio | – | –
9 | GAGGMVHHR [HER2/neu peptide, position 1038, 9 amino acids] | 0.0043 relative binding ratio | – | –
10 | GAMPNQAQMR [HER2/neu peptide, position 704, 10 amino acids] | 0.0041 relative binding ratio | – | –
11 | GASCVTACPY [HER2/neu peptide, position 292, 10 amino acids] | 0.0001 relative binding ratio | – | –
12 | GGAVENPEY [HER2/neu peptide, position 1188, 9 amino acids] | 0.0001 relative binding ratio | – | –
13 | GILIKRRQQK [HER2/neu peptide, position 672, 10 amino acids] | 0.0014 relative binding ratio | – | –
14 | GLACHQLCAR [HER2/neu peptide, position 508, 10 amino acids] | 0.0001 relative binding ratio | – | –
15 | GLGISWLGLR [HER2/neu peptide, position 447, 10 amino acids] | 0.0001 relative binding ratio | – | –
16 | GLPREYVNAR [HER2/neu peptide, position 549, 10 amino acids] | 0.0003 relative binding ratio | – | –
17 | GMEHLREVR [HER2/neu peptide, position 346, 9 amino acids] | -0.0002 relative binding ratio | – | –
18 | GMSYLEDVR [HER2/neu peptide, position 832, 9 amino acids] | 0.0002 relative binding ratio | – | –
19 | GSGAFGTVY [HER2/neu peptide, position 727, 9 amino acids] | 0.0001 relative binding ratio | – | –
20 | GSGAFGTVYK [HER2/neu peptide, position 727, 10 amino acids] | 0.13 relative binding ratio | – | –

Row | Binder | relative binding ratio (IC50 of standard peptide / IC50 of test peptide) [1] | relative binding ratio [2] | also measured
21 | GTQRCEKCSK [HER2/neu peptide, position 327, 10 amino acids] | 0.61 relative binding ratio | – | –
22 | GVGSPYVSR [HER2/neu peptide, position 776, 9 amino acids] | 0.0066 relative binding ratio | – | –
23 | GVVFGILIK (T0001 prints T at residue 673) [HER2/neu peptide, position 668, 9 amino acids] | 0.089 relative binding ratio | – | –
24 | HADGGKVPIK [HER2/neu peptide, position 878, 10 amino acids] | 0.0008 relative binding ratio | – | –
25 | ETEYHADGGKVPIKW (also called Her2/neu.874) [HER2/neu peptide ETEYHADGGKVPIKW (position 874)] | – | -0.0027 ratio to standard peptide | –
26 | FVVIQNEDLGPASPL (also called Her2/neu.986) [HER2/neu peptide FVVIQNEDLGPASPL (position 986)] | – | -0.0025 ratio to standard peptide | –
27 | GDLVDAEEYLVPQQG (also called Her2/neu.1015) [HER2/neu peptide GDLVDAEEYLVPQQG (position 1015)] | – | 0.025 ratio to standard peptide | –
28 | IWKFPDEEGACQPCP (also called Her2/neu.613) [HER2/neu peptide IWKFPDEEGACQPCP (position 613)] | – | -0.0027 ratio to standard peptide | –
29 | KGPLPTDCCHEQCAA (also called Her2/neu.228) [HER2/neu peptide KGPLPTDCCHEQCAA (position 228)] | – | -0.0027 ratio to standard peptide | –
30 | KNGVVKDVFAFGGAV (also called Her2/neu.1177) [HER2/neu peptide KNGVVKDVFAFGGAV (position 1177)] | – | -0.0025 ratio to standard peptide | –
31 | LVTYNTDTFESMPNP (also called Her2/neu.271) [HER2/neu peptide LVTYNTDTFESMPNP (position 271)] | – | -0.0027 ratio to standard peptide | –
32 | MRRLLQETELVEPLT (also called Her2/neu.687) [HER2/neu peptide MRRLLQETELVEPLT (position 687)] | – | -0.0027 ratio to standard peptide | –
33 | NKEILDEAYVMAGVG (also called Her2/neu.764) [HER2/neu peptide NKEILDEAYVMAGVG (position 764)] | – | 0.0047 ratio to standard peptide | –
34 | NQEVTAEDGTQRCEK (also called Her2/neu.319) [HER2/neu peptide NQEVTAEDGTQRCEK (position 319)] | – | -0.0027 ratio to standard peptide | –
35 | PSGVKPDLSYMPIWK (also called Her2/neu.601) [HER2/neu peptide PSGVKPDLSYMPIWK (position 601)] | – | -0.0027 ratio to standard peptide | –
36 | RSLLEDDDMGDLVDA (also called Her2/neu.1006) [HER2/neu peptide RSLLEDDDMGDLVDA (position 1006)] | – | 0.008 ratio to standard peptide | –
37 | SDVFDGDLGMGAAKG (also called Her2/neu.1083) [HER2/neu peptide SDVFDGDLGMGAAKG (position 1083)] | – | -0.0025 ratio to standard peptide | –
38 | SLAFLPESFDGDPAS (also called Her2/neu.373) [HER2/neu peptide SLAFLPESFDGDPAS (position 373)] | – | -0.0027 ratio to standard peptide | –
39 | SLSFLQDIQEVQGYV (also called Her2/neu.70) [HER2/neu peptide SLSFLQDIQEVQGYV (position 70)] | – | 0.052 ratio to standard peptide | –
40 | TAPLQPEQLQVFETL (also called Her2/neu.389) [HER2/neu peptide TAPLQPEQLQVFETL (position 389)] | – | 0.0023 ratio to standard peptide | –

Row | Binder | relative binding ratio (IC50 of standard peptide / IC50 of test peptide) [1] | relative binding ratio [2] | also measured
41 | TVPLPSETDGYVAPL (also called Her2/neu.1117) [HER2/neu peptide TVPLPSETDGYVAPL (position 1117)] | – | -0.0025 ratio to standard peptide | –
42 | VHTVPWDQLFRNPHQ (also called Her2/neu.477) [HER2/neu peptide VHTVPWDQLFRNPHQ (position 477)] | – | 0.022 ratio to standard peptide | –
43 | VTCFGPEADQCVACA (also called Her2/neu.574) [HER2/neu peptide VTCFGPEADQCVACA (position 574)] | – | -0.0027 ratio to standard peptide | –
44 | YNYLSTDVGSCTLVC (also called Her2/neu.301) [HER2/neu peptide YNYLSTDVGSCTLVC (position 301)] | – | 0.0059 ratio to standard peptide | –
45 | YRSLLEDDDMGDLVD (also called Her2/neu.1005) [HER2/neu peptide YRSLLEDDDMGDLVD (position 1005)] | – | 0.063 ratio to standard peptide | –
46 | LPTNASLSFL (native HER2/neu peptide from position 65) [Her2/neu.65 (10-mer)] | – | – | IC50 [3]: 2.5 µM; IC50 [4]: 0.29 µM
47 | WPDSLPDI (analog peptide) [Her2/neu.415.I8] | – | – | IC50 [3]: 5 µM; IC50 [4]: 0.071 µM
48 | KPDLSYMPI (native HER2/neu peptide from position 605) [Her2/neu.605] | – | – | IC50 [3]: 2.5 µM; IC50 [4]: 0.076 µM
49 | FPAEQRASPI (10-mer analog of the HER2/neu peptide starting at position 642) [Her2/neu.642.F1I10] | – | – | IC50 [5]: 0.098 µM; IC50 [6]: 4.9 µM; IC50 [7]: 0.0031 µM; IC50 [8]: 0.056 µM
50 | SPLTSIISAV (10-mer native HER2/neu peptide starting at position 649) [Her2/neu.649, 10-mer] | – | – | IC50 [7]: 0.061 µM; IC50 [8]: 0.667 µM
51 | SPLTSIISI (9-mer analog of the HER2/neu peptide starting at position 649) [Her2/neu.649.I9] | – | – | IC50 [5]: 0.275 µM; IC50 [6]: 3.44 µM; IC50 [7]: 0.086 µM; IC50 [8]: 0.217 µM
52 | FPLTPSGAI (9-mer analog of the HER2/neu peptide starting at position 698) [Her2/neu.698.F1I9] | – | – | IC50 [5]: 0.0092 µM; IC50 [7]: 0.0009 µM; IC50 [8]: 0.0019 µM
53 | FPNQAQMRII (10-mer analog of the HER2/neu peptide starting at position 706) [Her2/neu.706.F1I10] | – | – | IC50 [5]: 0.076 µM; IC50 [6]: 0.49 µM; IC50 [7]: 0.29 µM; IC50 [8]: 0.059 µM
54 | FPKANKEI (8-mer analog of the HER2/neu peptide starting at position 760; same label as the 9-mer in r54) [Her2/neu.760.F1, 8-mer] | – | – | IC50 [5]: 2.5 µM; IC50 [7]: 0.00016 µM; IC50 [8]: 3.12 µM
55 | FPKANKEII (9-mer analog of the HER2/neu peptide starting at position 760) [Her2/neu.760.F1I9] | – | – | IC50 [5]: 0.055 µM; IC50 [6]: 7.15 µM; IC50 [7]: 0.0085 µM; IC50 [8]: 0.039 µM
56 | NIQEFAGCK (Synthetic A3 supermotif peptide) [HER2/neu peptide, position 360, 9 amino acids] | – | – | relative binding ratio [9]: 0.0002 ratio (IC50 of standard peptide / IC50 of test peptide); relative binding ratio [10]: 0.0036 ratio (IC50 of standard peptide / IC50 of test peptide)
57 | NIQEFAGCKK (Synthetic A3 supermotif peptide) [HER2/neu peptide, position 360, 10 amino acids] | – | – | relative binding ratio [9]: 0.0003 ratio (IC50 of standard peptide / IC50 of test peptide); relative binding ratio [10]: 0.0056 ratio (IC50 of standard peptide / IC50 of test peptide)
58 | PAGATLERPK (Synthetic A3 supermotif peptide) [HER2/neu peptide, position 1162, 10 amino acids] | – | – | relative binding ratio [9]: -0.0002 ratio (IC50 of standard peptide / IC50 of test peptide); relative binding ratio [10]: -0.0002 ratio (IC50 of standard peptide / IC50 of test peptide)
59 | PLQRLRIVR (Synthetic A3 supermotif peptide) [HER2/neu peptide, position 95, 9 amino acids] | – | – | relative binding ratio [9]: 0.0002 ratio (IC50 of standard peptide / IC50 of test peptide); relative binding ratio [10]: 0.0001 ratio (IC50 of standard peptide / IC50 of test peptide)
60 | PTHDPSPLQR [HER2/neu peptide, position 1102, 10 amino acids] | – | – | relative binding ratio [9]: 0.0003 ratio (IC50 of standard peptide / IC50 of test peptide); relative binding ratio [10]: 0.0001 ratio (IC50 of standard peptide / IC50 of test peptide)
